According to patent publication US12723105 (dated 2026):

How the values were obtained:
[1] = target: human CD47 (R & D systems) (UniProt Q08722 19-139); assay: flow cytometry, CD47-overexpressing cells; HCAb
[2] = target: T1, CD47 natively expressed on tumor cell surface (Jurkat, HL60 cells) (human, UniProt Q08722 19-323); assay: competitive flow cytometry vs SIRPα-Fc; Jurkat cells
[3] = target: T1, CD47 natively expressed on tumor cell …; assay: flow cytometry; HL-60 cells
CD47-Fc (R&D systems) = CD47-Fc (R&D systems) (UniProt Q08722 19-139); assay: competitive ELISA vs SIRPα
[4] = target: PD-L1 on PD-L1-expressing APC/CHO-K1 cells (UniProt Q9NZQ7 19-290); assay: flow cytometry, PD-L1 CHO cells; HCAb
Human serum albumin = Human serum albumin (UniProt P02768 25-609); assay: Octet BLI

PD-L1 on PD-L1-expressing APC/CHO-K1 cells, sequence (Q9NZQ7 19-290): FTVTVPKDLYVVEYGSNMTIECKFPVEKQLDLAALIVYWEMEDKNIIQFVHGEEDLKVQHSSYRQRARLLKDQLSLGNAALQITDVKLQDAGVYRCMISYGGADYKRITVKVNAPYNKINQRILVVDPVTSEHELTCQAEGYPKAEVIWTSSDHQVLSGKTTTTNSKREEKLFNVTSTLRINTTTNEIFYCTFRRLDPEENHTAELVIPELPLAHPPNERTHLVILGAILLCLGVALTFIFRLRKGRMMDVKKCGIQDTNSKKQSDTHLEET

IC50 [2] [nM] | EC50 [3] [nM] | IC50 (CD47-Fc (R&D systems)) [nM] | EC50 [4] [nM] | Binder | other results
– | – | – | – | A09-10 (antibody, V domains shown) VH: QVQLVESGGGLVQAGGSLRLSCAASGGGRTFSNYALGWFRQAPGKEREFVAAISRSGGNINYADSAKGRFTISRDNFKNTTYLQMSSLKPEDTAVYYCAAHYLLLPSYISTSTNMYNYWGQGTQVTVSS | EC50 [1]: 0.36 nM
1.28 | 26.2 | 0.453 | – | multi-specific molecule 1511 (CD16F1-L1-hHS10-L1-hA09-10-2-L3-A09-10-L1-hPL16-L3-hPL16) (bispecific antibody) EVQLVESGGGLVQPGGSLRLSCAVSGSLFSARVMGWYRQAPGKQRELVAAITSGVRTDYADSVKGRFTISRDNAKRAVYLQMNSLKPEDTAVYYCNVNLYNTGNYWGQGTQVTVSSGGGGSGGGSEVQLVESGGGLVQPGGSLRLSCAASGSTDSAYRMGWFRQAPGKEREFVSAINWSDGRTYYADSVKGRFTISRDNSKNTLYLQMNSLRAEDTAVYYCAADPDSRLYYTVPQNYDYWGQGTLVTVSSGGGGSGGGSEVQLVESGGGLVQPGGSLRLSCAASGGGRTFSNYALGWFRQAPGKEREFVAAISRSGGNINYADSVKGRFTISRDNFKNTTYLQMSSLEPEDTAVYYCAAHYLLLPSYISTSTNMYNYWGQGTQVTVSSAAAQVQLVESGGGLVQAGGSLRLSCAASGGGRTFSNYALGWFRQAPGKEREFVAAISRSGGNINYADSVKGRFTISRDNFKNTTYLQMSSLEPEDTAVYYCAAHYLLLPSYISTSTNMYNYWGQGTQVTVSSGGGGSGGGSEVQLVESGGGLVQPGGSLRLSCAASGGTFLTYSMSWVRQAPGKEREFVSSINWSGYMTYYADSVKGRFTISRDNSKNTLYLQMNSLRAEDTAVYYCAAARTAIAAKRSSEFDYWGQGTQVTVSSAAAEVQLVESGGGLVQPGGSLRLSCAASGGTFLTYSMSWVRQAPGKEREFVSSINWSGYMTYYADSVKGRFTISRDNSKNTLYLQMNSLRAEDTAVYYCAAARTAIAAKRSSEFDYWGQGTQVTVSS | –
0.935 | 0.182 | 0.267 | – | multi-specific molecule 3321 (CD16F1-L1-hHS10-L1-hA09-10-3-L3-hA09-10-4-L1-H33-14-L3-H33-14) (other) EVQLVESGGGLVQPGGSLRLSCAVSGSLFSARVMGWYRQAPGKQRELVAAITSGVRTDYADSVKGRFTISRDNAKRAVYLQMNSLKPEDTAVYYCNVNLYNTGNYWGQGTQVTVSSGGGGSGGGSEVQLVESGGGLVQPGGSLRLSCAASGSTDSAYRMGWFRQAPGKEREFVSAINWSDGRTYYADSVKGRFTISRDNSKNTLYLQMNSLRAEDTAVYYCAADPDSRLYYTVPQNYDYWGQGTLVTVSSGGGGSGGGSEVQLVESGGGLVQPGGSLRLSCAASGGGRTFSNYALGWFRQAPGKEREFVAAISRSGGNINYADSVKGRFTISRDNFKNTVYLQMSSLRAEDTAVYYCAAHYLLLPSYISTSTNMYNYWGQGTQVTVSSAAAQVQLVESGGGLVQPGGSLRLSCAASGGGRTFSNYALGWFRQAPGKEREFVAAISRSGGNINYADSVKGRFTISRDNAKNTVYLQMSSLRAEDTAVYYCAAHYLLLPSYISTSTNMYNYWGQGTQVTVSSGGGGSGGGSQVQLVESGGGLVQPGGSLRLSCAASGRTSLILAMAWWRQAPGKEREFAGRIWWNNDMTRYSDSVKGRFTISRDNAKNTVYLQMSSLRAEDTAVYYCEADLIGGSRGWGQGTLVTVSSAAAQVQLVESGGGLVQPGGSLRLSCAASGRTSLILAMAWWRQAPGKEREFAGRIWWNNDMTRYSDSVKGRFTISRDNAKNTVYLQMSSLRAEDTAVYYCEADLIGGSRGWGQGTLVTVSS | –
– | – | – | 1.78 | PL16 (antibody, V domains shown) VH: QVQLVESGGGLVQAGGSLRLSCAFSGGTFLTYSLGWFRQGPGKEREFVASINWSGYMTSYVDSVKGRFTISRDNAKNTVYLQMNSLKPEDTALYYCAAARTAIAAKRSSEFDYWGQGAQVTVSS | –
– | – | – | 2.09 | PL14 (antibody, V domains shown) VH: EVQLVESGGGLVQAGGSLRLSCAASGSTSGIYDMGWYRQAPGKLREVVGIITSGGTTNYADFAKGRFTISRDNAKNMMYLQMNSLKPEDTAVYYCNIRTRLIIWGQGTQVTVSS | –
– | – | – | – | HS27 (VHH) VHH: EVQLVESGGGLVQPGGSLRLSCAASGRTFSPYTMGWFRQASGKERESVAATTWTGSRSYYGESVKGRFTISRDSTKNTMSLQMNSLKPEDTAVYYCAAADGAGLYTNRGQYDYWGQGTQVTVSS | Kd (Human serum albumin): 1.14 nM
